Experimental findings from paper PMC10992996 are described below.

Sequences and labels used below:
B1: Human canonical CRB1 (Crumbs homolog 1), P82279 p.C681Y (protein)
chain: FCNKNNTRCLSNSCQNNSTCKDFSKDNDCSCSDTANNLDKDCDNMKDPCFSNPCQGSATCVNTPGERSFLCKCPPGYSGTICETTIGSCGKNSCQHGGICHQDPIYPVCICPAGYAGRFCEIDHDECASSPCQNGAVCQDGIDGYSCFCVPGYQGRHCDLEVDECASDPCKNEATCLNEIGRYTCICPHNYSGVNCELEIDECWSQPCLNGATCQDALGAYFCDCAPGFLGDHCELNTDECASQPCLHGGLCVDGENRYSCNCTGSGFTGTHCETLMPLCWSKPCHNNATCEDSVDNYTCHCWPGYTGAQCEIDLNECNSNPCQSNGECVELSSEKQYGRITGLPSSFSYHEASGYVCICQPGFTGIHCEEDVNECSSNPCQNGGTCENLPGNYTCHCPFDNLSRTFYGGRDCSDILLGCTHQQCLNNGTCIPHFQDGQHGFSCLCPSGYTGSLCEIATTLSFEGDGFLWVKSGSVTTKGSVCNIALRFQTVQPMALLLFRSNRDVFVKLELLSGYIHLSIQVNNQSKVLLFISHNTSDGEWHFVEVIFAEAVTLTLIDDSCKEKCIAKAPTPLESDQSICAFQNSFLGGLPVGMTSNGVALLNFYNMPSTPSFVGCLQDIKIDWNHITLENISSGSSLNVKAGCVRKDWCESQPYQSRGRCINLWLSYQCDCHRPYEGPNCLREYVAGRFGQDDSTGYVIFTLDESYGDTISLSMFVRTLQPSGLLLALENSTYQYIRVWLERGRLAMLTPNSPKLVVKFVLNDGNVHLISLKIKPYKIELYQSSQNLGFISASTWKIEKGDVIYIGGLPDKQETELNGGFFKGCIQDVRLNNQNLEFFPNPTNNASLNPVLVNVTQGCAGDNSCKSNPCHNGGVCHSRWDDFSCSCPALTSGKACEEVQWCGFSPCPHGAQCQPVLQGFECIANAVFNGQSGQILFRSNGNITRELTNITFGFRTRDANVIILHAEKEPEFLNISIQDSRLFFQLQSGNSFYMLSLTSLQSVNDGTWHEVTLSMTDPLSQTSRWQMEVDNETPFVTSTIATGSLNFLKDNTDIYVGDRAIDNIKGLQGCLSTIEIGGIYLSYFENVHGFINKPQEEQFLKISTNSVVTGCLQLNVCNSNPCLHGGNCEDIYSSYHCSCPLGWSGKHCELNIDECFSNPCIHGNCSDRVAAYHCTCEPGYTGVNCEVDIDNCQSHQCANGATCISHTNGYSCLCFGNFTGKFCRQSRLPSTVCGNEKTNLTCYNGGNCTEFQTELKCMCRPGFTGEWCEKDIDECASDPCVNGGLCQDLLNKFQCLCDVAFAGERCEVDLADDLISDIFTTIGSVTVALLLILLLAIVASVVTSNKRATQGTYSPSRQEKEGSRVEMWNLMPPPAMERLI
B2: Human canonical CRB1 (Crumbs homolog 1), P82279 p.C1321S (protein)
chain: FCNKNNTRCLSNSCQNNSTCKDFSKDNDCSCSDTANNLDKDCDNMKDPCFSNPCQGSATCVNTPGERSFLCKCPPGYSGTICETTIGSCGKNSCQHGGICHQDPIYPVCICPAGYAGRFCEIDHDECASSPCQNGAVCQDGIDGYSCFCVPGYQGRHCDLEVDECASDPCKNEATCLNEIGRYTCICPHNYSGVNCELEIDECWSQPCLNGATCQDALGAYFCDCAPGFLGDHCELNTDECASQPCLHGGLCVDGENRYSCNCTGSGFTGTHCETLMPLCWSKPCHNNATCEDSVDNYTCHCWPGYTGAQCEIDLNECNSNPCQSNGECVELSSEKQYGRITGLPSSFSYHEASGYVCICQPGFTGIHCEEDVNECSSNPCQNGGTCENLPGNYTCHCPFDNLSRTFYGGRDCSDILLGCTHQQCLNNGTCIPHFQDGQHGFSCLCPSGYTGSLCEIATTLSFEGDGFLWVKSGSVTTKGSVCNIALRFQTVQPMALLLFRSNRDVFVKLELLSGYIHLSIQVNNQSKVLLFISHNTSDGEWHFVEVIFAEAVTLTLIDDSCKEKCIAKAPTPLESDQSICAFQNSFLGGLPVGMTSNGVALLNFYNMPSTPSFVGCLQDIKIDWNHITLENISSGSSLNVKAGCVRKDWCESQPCQSRGRCINLWLSYQCDCHRPYEGPNCLREYVAGRFGQDDSTGYVIFTLDESYGDTISLSMFVRTLQPSGLLLALENSTYQYIRVWLERGRLAMLTPNSPKLVVKFVLNDGNVHLISLKIKPYKIELYQSSQNLGFISASTWKIEKGDVIYIGGLPDKQETELNGGFFKGCIQDVRLNNQNLEFFPNPTNNASLNPVLVNVTQGCAGDNSCKSNPCHNGGVCHSRWDDFSCSCPALTSGKACEEVQWCGFSPCPHGAQCQPVLQGFECIANAVFNGQSGQILFRSNGNITRELTNITFGFRTRDANVIILHAEKEPEFLNISIQDSRLFFQLQSGNSFYMLSLTSLQSVNDGTWHEVTLSMTDPLSQTSRWQMEVDNETPFVTSTIATGSLNFLKDNTDIYVGDRAIDNIKGLQGCLSTIEIGGIYLSYFENVHGFINKPQEEQFLKISTNSVVTGCLQLNVCNSNPCLHGGNCEDIYSSYHCSCPLGWSGKHCELNIDECFSNPCIHGNCSDRVAAYHCTCEPGYTGVNCEVDIDNCQSHQCANGATCISHTNGYSCLCFGNFTGKFCRQSRLPSTVCGNEKTNLTCYNGGNCTEFQTELKCMCRPGFTGEWCEKDIDECASDPCVNGGLCQDLLNKFQSLCDVAFAGERCEVDLADDLISDIFTTIGSVTVALLLILLLAIVASVVTSNKRATQGTYSPSRQEKEGSRVEMWNLMPPPAMERLI
B3: Human canonical CRB1 (Crumbs homolog 1), P82279 p.C948Y (protein)
chain: FCNKNNTRCLSNSCQNNSTCKDFSKDNDCSCSDTANNLDKDCDNMKDPCFSNPCQGSATCVNTPGERSFLCKCPPGYSGTICETTIGSCGKNSCQHGGICHQDPIYPVCICPAGYAGRFCEIDHDECASSPCQNGAVCQDGIDGYSCFCVPGYQGRHCDLEVDECASDPCKNEATCLNEIGRYTCICPHNYSGVNCELEIDECWSQPCLNGATCQDALGAYFCDCAPGFLGDHCELNTDECASQPCLHGGLCVDGENRYSCNCTGSGFTGTHCETLMPLCWSKPCHNNATCEDSVDNYTCHCWPGYTGAQCEIDLNECNSNPCQSNGECVELSSEKQYGRITGLPSSFSYHEASGYVCICQPGFTGIHCEEDVNECSSNPCQNGGTCENLPGNYTCHCPFDNLSRTFYGGRDCSDILLGCTHQQCLNNGTCIPHFQDGQHGFSCLCPSGYTGSLCEIATTLSFEGDGFLWVKSGSVTTKGSVCNIALRFQTVQPMALLLFRSNRDVFVKLELLSGYIHLSIQVNNQSKVLLFISHNTSDGEWHFVEVIFAEAVTLTLIDDSCKEKCIAKAPTPLESDQSICAFQNSFLGGLPVGMTSNGVALLNFYNMPSTPSFVGCLQDIKIDWNHITLENISSGSSLNVKAGCVRKDWCESQPCQSRGRCINLWLSYQCDCHRPYEGPNCLREYVAGRFGQDDSTGYVIFTLDESYGDTISLSMFVRTLQPSGLLLALENSTYQYIRVWLERGRLAMLTPNSPKLVVKFVLNDGNVHLISLKIKPYKIELYQSSQNLGFISASTWKIEKGDVIYIGGLPDKQETELNGGFFKGCIQDVRLNNQNLEFFPNPTNNASLNPVLVNVTQGCAGDNSCKSNPCHNGGVCHSRWDDFSCSCPALTSGKACEEVQWCGFSPCPHGAQCQPVLQGFEYIANAVFNGQSGQILFRSNGNITRELTNITFGFRTRDANVIILHAEKEPEFLNISIQDSRLFFQLQSGNSFYMLSLTSLQSVNDGTWHEVTLSMTDPLSQTSRWQMEVDNETPFVTSTIATGSLNFLKDNTDIYVGDRAIDNIKGLQGCLSTIEIGGIYLSYFENVHGFINKPQEEQFLKISTNSVVTGCLQLNVCNSNPCLHGGNCEDIYSSYHCSCPLGWSGKHCELNIDECFSNPCIHGNCSDRVAAYHCTCEPGYTGVNCEVDIDNCQSHQCANGATCISHTNGYSCLCFGNFTGKFCRQSRLPSTVCGNEKTNLTCYNGGNCTEFQTELKCMCRPGFTGEWCEKDIDECASDPCVNGGLCQDLLNKFQCLCDVAFAGERCEVDLADDLISDIFTTIGSVTVALLLILLLAIVASVVTSNKRATQGTYSPSRQEKEGSRVEMWNLMPPPAMERLI

The target in this test is Human canonical CRB2 (Crumbs homolog 2), Q5IJ48-1. Nature of the test: co-IP (FLAG-IP) and Western blot quantification. The note with it: chain shown with the change; co-transfected in HEK293T cells; three biological replicates; parent: est. 1.0; read off a plot. In general terms: Immunoblotting shows a protein as a band on a membrane.
Sequence of Human canonical CRB2 (Crumbs homolog 2), Q5IJ48-1 (Q5IJ48 29-1285): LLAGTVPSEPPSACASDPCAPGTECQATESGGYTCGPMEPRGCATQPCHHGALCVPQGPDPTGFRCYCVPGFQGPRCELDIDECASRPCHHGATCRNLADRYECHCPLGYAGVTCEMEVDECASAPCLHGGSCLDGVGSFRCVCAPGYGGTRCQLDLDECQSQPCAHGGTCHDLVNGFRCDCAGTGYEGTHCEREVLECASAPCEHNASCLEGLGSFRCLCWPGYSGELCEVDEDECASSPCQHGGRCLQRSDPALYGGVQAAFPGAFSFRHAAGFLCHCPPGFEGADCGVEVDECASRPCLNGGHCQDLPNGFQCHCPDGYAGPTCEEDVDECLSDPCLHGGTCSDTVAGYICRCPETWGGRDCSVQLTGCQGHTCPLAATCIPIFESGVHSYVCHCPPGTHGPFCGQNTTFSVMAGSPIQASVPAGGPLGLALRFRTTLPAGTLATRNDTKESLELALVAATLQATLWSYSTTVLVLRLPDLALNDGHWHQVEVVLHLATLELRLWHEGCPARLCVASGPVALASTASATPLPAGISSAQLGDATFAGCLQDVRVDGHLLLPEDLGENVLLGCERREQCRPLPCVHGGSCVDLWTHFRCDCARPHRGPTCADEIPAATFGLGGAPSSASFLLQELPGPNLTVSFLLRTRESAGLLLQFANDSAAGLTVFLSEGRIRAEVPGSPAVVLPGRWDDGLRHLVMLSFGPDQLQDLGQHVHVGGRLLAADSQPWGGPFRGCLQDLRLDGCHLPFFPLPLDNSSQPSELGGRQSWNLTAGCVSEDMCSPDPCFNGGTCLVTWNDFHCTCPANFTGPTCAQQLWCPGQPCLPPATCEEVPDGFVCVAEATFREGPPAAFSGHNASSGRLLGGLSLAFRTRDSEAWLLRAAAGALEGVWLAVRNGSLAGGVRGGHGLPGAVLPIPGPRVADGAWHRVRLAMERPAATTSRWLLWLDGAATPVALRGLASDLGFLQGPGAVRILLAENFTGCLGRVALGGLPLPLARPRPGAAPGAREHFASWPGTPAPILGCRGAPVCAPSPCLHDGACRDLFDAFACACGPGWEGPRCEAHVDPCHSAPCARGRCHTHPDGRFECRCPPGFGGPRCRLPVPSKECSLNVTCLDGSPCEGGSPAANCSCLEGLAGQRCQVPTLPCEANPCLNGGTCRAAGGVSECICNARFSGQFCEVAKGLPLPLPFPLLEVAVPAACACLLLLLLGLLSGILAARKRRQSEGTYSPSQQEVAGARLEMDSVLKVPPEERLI
In the case of B1, the ratio to parent is 1.1. Next, B2: 1; B3: 1.
